Positions count from the first letter of the chain named.
T1: HA-tagged human Neuropeptide S receptor, N107 variant (human, UniProt Q6W5P4 1-371)
T1 sequence (looked up): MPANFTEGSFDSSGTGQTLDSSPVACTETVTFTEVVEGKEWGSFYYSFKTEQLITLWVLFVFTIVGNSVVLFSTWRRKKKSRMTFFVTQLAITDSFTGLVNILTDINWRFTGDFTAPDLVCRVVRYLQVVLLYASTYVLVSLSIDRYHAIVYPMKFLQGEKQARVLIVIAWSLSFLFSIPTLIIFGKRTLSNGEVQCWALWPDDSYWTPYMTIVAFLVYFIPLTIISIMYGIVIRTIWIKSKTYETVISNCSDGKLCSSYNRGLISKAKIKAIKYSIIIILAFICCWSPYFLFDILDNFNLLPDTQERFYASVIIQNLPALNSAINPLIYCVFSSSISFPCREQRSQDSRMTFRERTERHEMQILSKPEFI

T2: HA-tagged human Neuropeptide S receptor, D105A mutant in the N107 background (human, UniProt Q6W5P4 1-371, D105A)
T2 sequence (looked up): T1 sequence (looked up) with D105A

T3: HA-tagged human Neuropeptide S receptor, N101A mutant in the N107 background (human, UniProt Q6W5P4 1-371, N101A)
T3 sequence (looked up): T1 sequence (looked up) with N101A

T4: HA-tagged human Neuropeptide S receptor, I107 variant (human, UniProt Q6W5P4 1-371, N107I)
T4 sequence (looked up): T1 sequence (looked up) with N107I


How the values were obtained:
[1] = target: HA-tagged human Neuropeptide S receptor, D105A mutant in the N107 background (human) (UniProt Q6W5P4)
[2] = target: T1, HA-tagged human Neuropeptide S …; experiment: radioligand binding
[3] = target: T2, HA-tagged human Neuropeptide S …; experiment: radioligand binding
[4] = target: T1, HA-tagged human Neuropeptide S …; experiment: cell-based or functional assay
[5] = target: T3, HA-tagged human Neuropeptide S …; experiment: cell-based or functional assay
[6] = target: T2, HA-tagged human Neuropeptide S …; experiment: cell-based or functional assay
[7] = target: T4, HA-tagged human Neuropeptide S …; experiment: cell-based or functional assay

Molecule | EC50 of receptor activation by human NPS 1-18 (unpublished data) [1] [nM] | IC50 [2] [nM] | IC50 [3] [nM] | EC50 of NPS-mediated mobilisation of intracellular Ca2+ (FLIPR), stable clone #2 [4] [nM] | EC50 of NPS-mediated mobilisation of intracellular Ca2+ (FLIPR), stable clone #4 [4] [nM] | EC50 of NPS-mediated mobilisation of intracellular Ca2+ (FLIPR), stable clone #2 [5] [nM] | EC50 of NPS-mediated mobilisation of intracellular Ca2+ (FLIPR), stable clone #6 [5] [nM] | EC50 of receptor activation by human NPS 1-20 (unpublished data) [6] [nM] | EC50 of NPS-mediated mobilisation of intracellular Ca2+ (FLIPR), stable clone #4 [7] [nM] | EC50 of NPS-mediated mobilisation of intracellular Ca2+ (FLIPR), stable clone #5 [7] [nM]
human NPS 1-18 (peptide) | 1000 | – | – | – | – | – | – | – | – | –
SFRNGVGTGMKKTSFQRAKS (peptide, UniProt P0C0P6 70-89, looked up) [Neuropeptide S (human)] | – | 8.7 ± 1.9 | > 200 | 25 | 4.9 | 12 | 42 | ~1000 | 1.6 | 1.7
